Measurements from patent US20150140169.

B1: camel chymosin variant #138 (F223E) (protein)
chain: GKVAREPLTSYLDSQYFGKIYIGTPPQEFTVVFDTGSSDLWVPSIYCKSNVCKNHHRFDPRKSSTFRNLGKPLSIHYGTGSMEGFLGYDTVTVSNIVDPNQTVGLSTEQPGEVFTYSEFDGILGLAYPSLASEYSVPVFDNMMDRHLVARDLFSVYMDRNGQGSMLTLGAIDPSYYTGSLHWVPVTLQQYWQFTVDSVTINGVAVACVGGCQAILDTGTSVLEGPSSDILKIQMAIGATENRYGEFDVNCGNLRSMPTVVFEINGRDYPLSPSAYTSKDQGFCTSGFQGDNNSELWILGDVFIREYYSVFDRANNRVGLAKAI
B2: camel chymosin variant #139 (F223L) (protein)
chain: GKVAREPLTSYLDSQYFGKIYIGTPPQEFTVVFDTGSSDLWVPSIYCKSNVCKNHHRFDPRKSSTFRNLGKPLSIHYGTGSMEGFLGYDTVTVSNIVDPNQTVGLSTEQPGEVFTYSEFDGILGLAYPSLASEYSVPVFDNMMDRHLVARDLFSVYMDRNGQGSMLTLGAIDPSYYTGSLHWVPVTLQQYWQFTVDSVTINGVAVACVGGCQAILDTGTSVLLGPSSDILKIQMAIGATENRYGEFDVNCGNLRSMPTVVFEINGRDYPLSPSAYTSKDQGFCTSGFQGDNNSELWILGDVFIREYYSVFDRANNRVGLAKAI
B3: camel chymosin variant #140 (F223M) (protein)
chain: GKVAREPLTSYLDSQYFGKIYIGTPPQEFTVVFDTGSSDLWVPSIYCKSNVCKNHHRFDPRKSSTFRNLGKPLSIHYGTGSMEGFLGYDTVTVSNIVDPNQTVGLSTEQPGEVFTYSEFDGILGLAYPSLASEYSVPVFDNMMDRHLVARDLFSVYMDRNGQGSMLTLGAIDPSYYTGSLHWVPVTLQQYWQFTVDSVTINGVAVACVGGCQAILDTGTSVLMGPSSDILKIQMAIGATENRYGEFDVNCGNLRSMPTVVFEINGRDYPLSPSAYTSKDQGFCTSGFQGDNNSELWILGDVFIREYYSVFDRANNRVGLAKAI
B4: Maxiren (recombinant wild-type calf chymosin B) (protein)
chain: GEVASVPLTNYLDSQYFGKIYLGTPPQEFTVLFDTGSSDFWVPSIYCKSNACKNHQRFDPRKSSTFQNLGKPLSIHYGTGSMQGILGYDTVTVSNIVDIQQTVGLSTQEPGDVFTYAEFDGILGMAYPSLASEYSIPVFDNMMNRHLVAQDLFSVYMDRNGQESMLTLGAIDPSYYTGSLHWVPVTVQQYWQFTVDSVTISGVVVACEGGCQAILDTGTSKLVGPSSDILNIQQAIGATQNQYGEFDIDCDNLSYMPTVVFEINGKMYPLTPSAYTSQDQGFCTSGFQSENHSQKWILGDVFIREYYSVFDRANNLVGLAKAI

Target: T1, alpha-s1 casein from Bos taurus
T1 chain: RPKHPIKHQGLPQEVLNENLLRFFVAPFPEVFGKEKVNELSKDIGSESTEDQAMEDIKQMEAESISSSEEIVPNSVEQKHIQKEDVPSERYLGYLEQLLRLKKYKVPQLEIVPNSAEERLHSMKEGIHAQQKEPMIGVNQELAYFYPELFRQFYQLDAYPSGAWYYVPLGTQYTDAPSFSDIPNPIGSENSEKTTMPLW

Row | Protein | (αSN1-1)/(αSN1), 6 hours, 11° C. | (αSN1-1)/(αSN1), 24 hours, 11° C. | αs1-I CN, 6 hours, 11° C. [Volume] | αs1-I CN, 24 hours, 11° C. [Volume] | αs1 CN, 6 hours, 11° C. [Volume] | αs1 CN, 24 hours, 11° C. [Volume] | (αSN1-1)/(αSN1), 6 hours, 11° C. (average) | (αSN1-1)/(αSN1), 24 hours, 11° C. (average) | hydrolysis of the first cut in alpha-s1-casein | small, 6 hours, 11° C. [Volume] | small, 16 hours, 30° C. [Volume] | small, 24 hours, 11° C. [Volume] | αs1-I CN, 6 hours, 11° C. (average) [Volume] | αs1-I CN, 16 hours, 30° C. [Volume] | αs1-I CN, 24 hours, 11° C. (average) [Volume] | αs1-I CN/αs1 CN, 6 hours, 11° C. | αs1-I CN/αs1 CN, 24 hours, 11° C. | αs1 CN, 6 hours, 11° C. (average) [Volume] | αs1 CN, 16 hours, 30° C. [Volume] | αs1 CN, 24 hours, 11° C. (average) [Volume]
1 | B1 | 0.6 | 1.4 | 2e+07 | 2.47e+07 | 3.29e+07 | 1.74e+07 |  |  |  |  |  |  |  |  |  |  |  |  |  | 
2 | B2 | 1.2 | 4.3 | 2.59e+07 | 1.24e+07 | 2.1e+07 | 2.9e+06 |  |  |  |  |  |  |  |  |  |  |  |  |  | 
3 | B3 | 0.7 | 2 | 2.34e+07 | 2.27e+07 | 3.22e+07 | 1.14e+07 |  |  |  |  |  |  |  |  |  |  |  |  |  | 
4 | B4 |  |  | 2.12e+07 | 1.59e+07 | 1.14e+07 | 1.6e+06 | 1.7 | 6.3 | This rapid first cut is similar to the situation with wild-type calf chymosin (Maxiren) | 0 | 8.1e+06 | 6.7e+06 | 2.63e+07 | 600000 | 2.52e+07 | 1.9 | 9.7 | 1.58e+07 | 900000 | 4e+06
